Source: EP4259652B1

Target: monoclonal antibody NBH133A1-2B4
Experiment: competitive ELISA: standard peptide competes with coated …-K-Biotin for HRP-labelled antibody

An IC50 of 0.0117 µg/mL was found for NLLNLNKDKE [standard peptide …] in this work.
